Assay results from US20240182563A1 (GENOME, published 2024).
Where two headings read alike, the source gives them in different places.

Assays:
Assay in all cases: ELISA, plate coated with CNTN4-10xHis, anti-human Fc-HRP
[1] = target: T1, human CNTN4-10xHis (human, UniProt Q8IWV2 19-1000)
T1 sequence: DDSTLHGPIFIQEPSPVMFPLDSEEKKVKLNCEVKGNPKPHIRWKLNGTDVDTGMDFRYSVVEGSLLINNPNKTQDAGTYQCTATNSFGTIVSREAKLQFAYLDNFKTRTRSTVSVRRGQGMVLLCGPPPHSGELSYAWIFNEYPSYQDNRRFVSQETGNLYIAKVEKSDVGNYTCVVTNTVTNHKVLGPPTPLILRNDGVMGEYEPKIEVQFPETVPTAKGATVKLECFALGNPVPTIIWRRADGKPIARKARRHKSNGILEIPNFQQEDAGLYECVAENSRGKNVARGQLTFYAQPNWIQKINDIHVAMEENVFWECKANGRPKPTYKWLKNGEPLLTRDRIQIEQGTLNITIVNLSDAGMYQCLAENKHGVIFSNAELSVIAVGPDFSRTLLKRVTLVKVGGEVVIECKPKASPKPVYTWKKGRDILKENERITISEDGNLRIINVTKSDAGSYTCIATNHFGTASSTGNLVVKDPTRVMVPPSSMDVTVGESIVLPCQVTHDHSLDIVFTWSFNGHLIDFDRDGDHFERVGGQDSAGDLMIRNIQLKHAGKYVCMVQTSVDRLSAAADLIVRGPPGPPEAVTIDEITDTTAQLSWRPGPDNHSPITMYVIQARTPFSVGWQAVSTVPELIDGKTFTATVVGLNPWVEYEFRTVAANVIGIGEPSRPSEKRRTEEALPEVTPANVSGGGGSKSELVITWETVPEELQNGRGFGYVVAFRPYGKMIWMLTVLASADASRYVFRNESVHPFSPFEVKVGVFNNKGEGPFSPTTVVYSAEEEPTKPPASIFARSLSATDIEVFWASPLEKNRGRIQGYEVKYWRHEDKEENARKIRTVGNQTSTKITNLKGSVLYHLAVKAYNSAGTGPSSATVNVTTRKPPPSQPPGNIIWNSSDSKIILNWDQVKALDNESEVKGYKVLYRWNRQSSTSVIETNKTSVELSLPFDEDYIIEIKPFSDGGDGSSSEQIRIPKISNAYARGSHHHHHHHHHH
Description: (§1) The LAH2, L1H2, and L2H2 antibodies prepared in Example 3.1 were subjected to an ELISA test together with A-01. An ELISA plate was coated with 200 ng of antigens (human CNTN4-10xHis or mouse CNTN4-10xHis). For antibody binding, antibodies were serially diluted from a maximum of 1 μM to 0.0001 nM, thereby binding to the antigen. Anti-human Fc-HRP was used as a secondary antibody for antibody detection. Color was developed using ABTS, which is a color developing reagent, and the absorbance at 405 nm was measured.

[2] = target: T2, mouse CNTN4-10xHis (mouse, UniProt Q69Z26 19-1000)
T2 sequence: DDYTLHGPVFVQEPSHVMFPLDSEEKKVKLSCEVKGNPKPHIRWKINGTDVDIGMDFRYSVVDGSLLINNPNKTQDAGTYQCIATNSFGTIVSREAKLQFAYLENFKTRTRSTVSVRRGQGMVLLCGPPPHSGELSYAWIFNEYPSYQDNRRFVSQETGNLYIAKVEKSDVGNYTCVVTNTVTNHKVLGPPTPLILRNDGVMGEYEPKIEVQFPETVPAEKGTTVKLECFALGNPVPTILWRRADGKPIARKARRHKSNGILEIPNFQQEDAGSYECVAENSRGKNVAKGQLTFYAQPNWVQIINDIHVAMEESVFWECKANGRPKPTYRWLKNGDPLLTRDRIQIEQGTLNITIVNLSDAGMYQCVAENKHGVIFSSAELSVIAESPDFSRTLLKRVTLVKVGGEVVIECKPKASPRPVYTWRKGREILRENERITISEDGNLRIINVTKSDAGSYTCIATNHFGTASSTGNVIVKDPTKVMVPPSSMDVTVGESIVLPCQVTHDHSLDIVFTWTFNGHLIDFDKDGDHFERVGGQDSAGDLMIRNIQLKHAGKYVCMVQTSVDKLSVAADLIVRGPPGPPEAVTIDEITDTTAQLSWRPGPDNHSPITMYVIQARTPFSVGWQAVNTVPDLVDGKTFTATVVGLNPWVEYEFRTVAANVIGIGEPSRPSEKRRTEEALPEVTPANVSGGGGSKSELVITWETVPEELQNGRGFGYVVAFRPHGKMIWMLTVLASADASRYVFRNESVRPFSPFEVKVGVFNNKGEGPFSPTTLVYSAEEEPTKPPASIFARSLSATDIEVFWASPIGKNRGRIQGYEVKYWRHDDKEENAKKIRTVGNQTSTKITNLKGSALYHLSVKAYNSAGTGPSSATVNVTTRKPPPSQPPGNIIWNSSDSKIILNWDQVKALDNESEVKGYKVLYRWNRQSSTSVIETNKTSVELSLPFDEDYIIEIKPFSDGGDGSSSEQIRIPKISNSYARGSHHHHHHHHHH
Description: as §1

[3] = target: T1, human CNTN4-10xHis; remark: listed apart in the source
Description: as §1, with “An ELISA test was performed on A-01” for “The LAH2, L1H2, and L2H2 antibodies”, “2.1.” for “3.1 were subjected to an ELISA test together with A-01.”, “A-01 was” for “antibodies were”

[4] = target: T2, mouse CNTN4-10xHis; remark: listed apart in the source
Description: as §1, with “An ELISA test was performed on A-01” for “The LAH2, L1H2, and L2H2 antibodies”, “2.1.” for “3.1 were subjected to an ELISA test together with A-01.”, “A-01 was” for “antibodies were”

Measured: EC50

B1: anti-CNTN4 129 chimeric IgG4-S228P (antibody, V domains shown)
VH: AVTLDESEGGLQTPGGALSLVCKASGFTFSSFNMFWVRQAPGKGLEYVAEISGGGGSTWYAPAVKGRATISRDNGQSTVRLQLNNLRAEDTGTYYCAKSADTWSYGAATIDAWGHGTEVIVSS
VL: ALTQPSSVSANLGETVKITCSGSSGSYGWYQQKSPGSAPVTLIYDNTNRPSDIPSRFSGSGSGSTGTLTITGVRAEDEAVYYCGGYDGSTDVFGAGTTLTVL
notes: chicken-human chimeric IgG4-S228P made from S129, kappa light chain constant region (Kappa select); also called A-01; LAHA
0.011 nM: [1] | [2] | [3] | [4]
